The data set is described as follows: total protein half-life in vivo (active degradation + dilution); higher = more stable protein.
Setting [1] is: E. coli NCM3722 delta-clpP delta-lon delta-hslV, growth: N-lim chemostat, doubling time 6 h.
Setting [2] is: E. coli NCM3722 delta-clpP, growth: N-lim chemostat, doubling time 6 h.
[3] abbreviates: E. coli NCM3722 delta-hslV, growth: N-lim chemostat, doubling time 6 h.
[4] abbreviates: E. coli NCM3722 delta-lon, growth: N-lim chemostat, doubling time 6 h.
[5] abbreviates: E. coli NCM3722 delta-smpB, growth: N-lim chemostat, doubling time 6 h.
Setting [6] is: wild type E. coli NCM3722, growth: C-lim chemostat, doubling time 3 h.
The mark [7] stands for this setting: wild type E. coli NCM3722, growth: C-lim chemostat, doubling time 6 h.
The mark [8] stands for this setting: wild type E. coli NCM3722, growth: C-lim chemostat, doubling time 12 h.
Where [9] appears, read: wild type E. coli NCM3722, growth: N-lim chemostat, doubling time 6 h.
Setting [10] is: wild type E. coli NCM3722, growth: N-lim chemostat, doubling time 12 h.
The mark [11] stands for this setting: wild type E. coli NCM3722, growth: P-lim chemostat, doubling time 6 h.
Setting [12] is: wild type E. coli NCM3722, growth: P-lim chemostat, doubling time 12 h.

± gives the standard deviation of the averaged measurements.

In the case of “MSQHNEKNPHQHQSPLHDSSEAKPGMDSLAPEDGSHRPAAEPTPPGAQPTAPGSLKAPDTRNEKLNSLEDVRKGSENYALTTNQGVRIADDQNSLRAGSRGPTLLEDFILREKITHFDHERIPERIVHARGSAAHGYFQPYKSLSDITKADFLSDPNKITPVFVRFSTVQGGAGSADTVRDIRGFATKFYTEEGIFDLVGNNTPIFFIQDAHKFPDFVHAVKPEPHWAIPQGQSAHDTFWDYVSLQPETLHNVMWAMSDRGIPRSYRTMEGFGIHTFRLINAEGKATFVRFHWKPLAGKASLVWDEAQKLTGRDPDFHRRELWEAIEAGDFPEYELGFQLIPEEDEFKFDFDLLDPTKLIPEELVPVQRVGKMVLNRNPDNFFAENEQAAFHPGHIVPGLDFTNDPLLQGRLFSYTDTQISRLGGPNFHEIPINRPTCPYHNFQRDGMHRMGIDTNPANYEPNSINDNWPRETPPGPKRGGFESYQERVEGNKVRERSPSFGEYYSHPRLFWLSQTPFEQRHIVDGFSFELSKVVRPYIRERVVDQLAHIDLTLAQAVAKNLGIELTDDQLNITPPPDVNGLKKDPSLSLYAIPDGDVKGRVVAILLNDEVRSADLLAILKALKAKGVHAKLLYSRMGEVTADDGTVLPIAATFAGAPSLTVDAVIVPCGNIADIADNGDANYYLMEAYKHLKPIALAGDARKFKATIKIADQGEEGIVEADSADGSFMDELLTLMAAHRVWSRIPKIDKIPA”, the “total protein half-life in vivo” value amounted to 6.34 ± 0.49 h under setting [1]; 6.14 ± 0.56 h under setting [2]; 5.76 ± 0.4 h under setting [3]; 5.78 ± 0.094 h under setting [4]; 5.28 ± 0.077 h under setting [5]; 2.79 ± 0.4 h under setting [6]. Besides, the “total protein half-life in vivo” value under setting [7] is 5.76 ± 0.23 h; the “total protein half-life in vivo” value under setting [8] is 10.8 ± 0.26 h; the “total protein half-life in vivo” value under setting [9] came to 5.81 ± 0.24 h; the “total protein half-life in vivo” value under setting [10] is 12.3 ± 1.9 h; the “total protein half-life in vivo” value under setting [11] is 5.88 ± 0.41 h; the “total protein half-life in vivo” value under setting [12] worked out at 11.9 ± 0.53 h.
For the sequence “MLRPVETPTREIKKLDGLWAFSLDRENCGIDQRWWESALQESRAIAVPGSFNDQFADADIRNYAGNVWYQREVFIPKGWAGQRIVLRFDAVTHYGKVWVNNQEVMEHQGGYTPFEADVTPYVIAGKSVRITVCVNNELNWQTIPPGMVITDENGKKKQSYFHDFFNYAGIHRSVMLYTTPNTWVDDITVVTHVAQDCNHASVDWQVVANGDVSVELRDADQQVVATGQGTSGTLQVVNPHLWQPGEGYLYELCVTAKSQTECDIYPLRVGIRSVAVKGEQFLINHKPFYFTGFGRHEDADLRGKGFDNVLMVHDHALMDWIGANSYRTSHYPYAEEMLDWADEHGIVVIDETAAVGFNLSLGIGFEAGNKPKELYSEEAVNGETQQAHLQAIKELIARDKNHPSVVMWSIANEPDTRPQGAREYFAPLAEATRKLDPTRPITCVNVMFCDAHTDTISDLFDVLCLNRYYGWYVQSGDLETAEKVLEKELLAWQEKLHQPIIITEYGVDTLAGLHSMYTDMWSEEYQCAWLDMYHRVFDRVSAVVGEQVWNFADFATSQGILRVGGNKKGIFTRDRKPKSAAFLLQKRWTGMNFGEKPQQGGKQ”, the “total protein half-life in vivo” value under setting [6] came to 2.85 ± 0.27 h, the “total protein half-life in vivo” value under setting [7] amounted to 5.46 ± 0.52 h and the “total protein half-life in vivo” value under setting [8] came out at 8.91 ± 1.3 h.
As for “MRDIQMVLERWGAWAANNHEDVTWSSIAAGFKGLITSKVKSRPQCCDDDAMIICGCMARLKKNNSDLHDLLVDYYVVGMTFMSLAGKHCCSDGYIGKRLQKAEGIIEGMLMALDIRLEMDIVVNNSN”, the “total protein half-life in vivo” value was found to be 2.96 h under setting [1], 8.73 h under setting [8], 5.67 h under setting [11] and 10.4 ± 0.22 h under setting [12].
In the case of “MSAFTPASEVLLRHSDDFEQSRILFAGDLQDDLPARLDTAASRAHTQQFHHWQVLSRQMGDNARFSLVATADDVADCDTLIYYWPKNKPEAQFQLMNLLSLLPVGTDIFVVGENRSGVRSAEQMLADYAPLNKVDSARRCGLYFGRLEKQPVFDAEKFWGEYSVDGLTVKTLPGVFSRDGLDVGSQLLLSTLTPHTKGKVLDVGCGAGVLSVAFARHSPKIRLTLCDVSAPAVEASRATLAANGVEGEVFASNVFSEVKGRFDMIISNPPFHDGMQTSLDAAQTLIRGAVRHLNSGGELRIVANAFLPYPDVLDETFGFHEVIAQTGRFKVYRAIMTRQAKKG”, the “total protein half-life in vivo” value under setting [1] was 6.65 ± 1.3 h; the “total protein half-life in vivo” value under setting [2] came to 5.678 ± 0.047 h; the “total protein half-life in vivo” value under setting [3] was determined as 6.2 ± 0.67 h; the “total protein half-life in vivo” value under setting [4] amounted to 6.21 ± 0.59 h; the “total protein half-life in vivo” value under setting [5] was 5.56 ± 0.52 h; the “total protein half-life in vivo” value under setting [6] was 2.93 ± 0.21 h. The “total protein half-life in vivo” value amounted to 6.41 ± 0.39 h under setting [7]; 11.6 ± 0.39 h under setting [8]; 5.68 ± 0.71 h under setting [9]; 11.1 ± 1.8 h under setting [10]; 6 ± 0.36 h under setting [11]; 12.9 ± 0.31 h under setting [12].
Consider “MAKNIQAIRGMNDYLPGETAIWQRIEGTLKNVLGSYGYSEIRLPIVEQTPLFKRAIGEVTDVVEKEMYTFEDRNGDSLTLRPEGTAGCVRAGIEHGLLYNQEQRLWYIGPMFRHERPQKGRYRQFHQLGCEVFGLQGPDIDAELIMLTARWWRALGISEHVTLELNSIGSLEARANYRDALVAFLEQHKEKLDEDCKRRMYTNPLRVLDSKNPEVQALLNDAPALGDYLDEESREHFAGLCKLLESAGIAYTVNQRLVRGLDYYNRTVFEWVTNSLGSQGTVCAGGRYDGLVEQLGGRATPAVGFAMGLERLVLLVQAVNPEFKADPVVDIYLVASGADTQSAAMALAERLRDELPGVKLMTNHGGGNFKKQFARADKWGARVAVVLGESEVANGTAVVKDLRSGEQTAVAQDSVAAHLRTLLG”, for which the “total protein half-life in vivo” value under setting [1] was 5.71 ± 1.3 h; the “total protein half-life in vivo” value under setting [2] was found to be 5.11 ± 0.23 h; the “total protein half-life in vivo” value under setting [3] was 5.44 ± 0.23 h; the “total protein half-life in vivo” value under setting [4] amounted to 5.45 ± 0.52 h; the “total protein half-life in vivo” value under setting [5] turned out to be 4.85 ± 0.12 h; the “total protein half-life in vivo” value under setting [6] amounted to 3.17 ± 0.23 h. Besides, the “total protein half-life in vivo” value reads like this: under setting [7], 6.14 ± 0.2 h; under setting [8], 10.5 ± 0.68 h; under setting [9], 4.8 ± 0.22 h; under setting [10], 9.1857 ± 0.0011 h; under setting [11], 5.98 ± 0.1 h; under setting [12], 13.7 ± 0.34 h.
As for “MKLVGSYTSPFVRKLSILLLEKGITFEFINELPYNADNGVAQFNPLGKVPVLVTEEGECWFDSPIIAEYIELMNVAPAMLPRDPLESLRVRKIEALADGIMDAGLVSVREQARPAAQQSEDELLRQREKINRSLDVLEGYLVDGTLKTDTVNLATIAIACAVGYLNFRRVAPGWCVDRPHLVKLVENLFSRESFARTEPPKA [P0ACA1]”, the “total protein half-life in vivo” value turned out to be 5.35 ± 1.8 h under setting [1]; 3.78 ± 0.28 h under setting [2]; 4.118 ± 0.04 h under setting [3]; 4.31 ± 0.48 h under setting [4]; 4.22 ± 0.18 h under setting [5]; 3.22 ± 0.13 h under setting [6]. For the same sequence, the “total protein half-life in vivo” value is, setting by setting: under setting [7], 5.52 ± 0.17 h; under setting [8], 10.7 ± 0.87 h; under setting [9], 4.16 ± 0.18 h; under setting [10], 6.719 ± 0.0095 h; under setting [11], 5.51 ± 0.23 h; under setting [12], 12 ± 1 h.

(Values after the supplement of paper PMC11246515.)
